Starred links: 1 amine or outer side, 2 acyl side, 3 side chain; linkers in the order of their positions; H or OH if unused. Positions of bridges follow the written chain, without caps; N, C: chain ends. *: point of attachment. C20 diacid = O=C(O)CCCCCCCCCCCCCCCCCCC(=O)*; C18 diacid = O=C(O)CCCCCCCCCCCCCCCCC(=O)*; γGlu = O=C(O)[C@H](CCC(=O)[*:2])N[*:1]
T1: human amylin 3(a) receptor (human calcitonin receptor + RAMP-3) (human, UniProt P30988 25-474; O60896 24-148)
T1 sequence (looked up) 1: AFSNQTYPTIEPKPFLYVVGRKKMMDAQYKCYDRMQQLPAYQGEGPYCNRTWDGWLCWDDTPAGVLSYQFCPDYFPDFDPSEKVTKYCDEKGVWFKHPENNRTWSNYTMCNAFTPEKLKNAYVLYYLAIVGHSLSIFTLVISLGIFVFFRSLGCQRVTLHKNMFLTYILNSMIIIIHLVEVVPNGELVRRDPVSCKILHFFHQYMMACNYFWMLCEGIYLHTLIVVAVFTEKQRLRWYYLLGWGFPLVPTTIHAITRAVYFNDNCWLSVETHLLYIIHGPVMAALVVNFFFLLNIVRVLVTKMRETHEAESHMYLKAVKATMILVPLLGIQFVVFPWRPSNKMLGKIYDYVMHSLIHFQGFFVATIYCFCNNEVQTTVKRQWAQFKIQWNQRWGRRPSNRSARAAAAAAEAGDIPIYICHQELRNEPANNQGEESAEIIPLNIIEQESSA
T1 sequence (looked up) 2: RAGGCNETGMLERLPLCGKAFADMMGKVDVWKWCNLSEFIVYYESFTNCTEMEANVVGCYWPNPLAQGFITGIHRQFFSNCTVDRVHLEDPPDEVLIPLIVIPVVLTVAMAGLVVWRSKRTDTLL

T2: human calcitonin (a) receptor (human, UniProt P30988 25-474)
T2 sequence (looked up): T1 sequence (looked up) 1

B1: N-alpha-{(S)-4-Carboxy-4-[(S)-4-Carboxy-4-(17-carboxyheptadecanoylamino)butyrylamino]butyryl}-[des1,Glu14,His17]-pramlintide (peptide)
peptide: {C18 diacid-γGlu-γGlu}-CNTATCATQRLAEFLHHSSNNFGPILPPTNVGSNTY-NH2
modifications: disulfide 1-6
SMILES: CC[C@H](C)[C@H](NC(=O)[C@@H]1CCCN1C(=O)CNC(=O)[C@H](Cc1ccccc1)NC(=O)[C@H](CC(N)=O)NC(=O)[C@H](CC(N)=O)NC(=O)[C@H](CO)NC(=O)[C@H](CO)NC(=O)[C@H](Cc1c[nH]cn1)NC(=O)[C@H](Cc1c[nH]cn1)NC(=O)[C@H](CC(C)C)NC(=O)[C@H](Cc1ccccc1)NC(=O)[C@H](CCC(=O)O)NC(=O)[C@H](C)NC(=O)[C@H](CC(C)C)NC(=O)[C@H](CCCNC(=N)N)NC(=O)[C@H](CCC(N)=O)NC(=O)[C@@H](NC(=O)[C@H](C)NC(=O)[C@@H]1CSSC[C@H](NC(=O)CC[C@H](NC(=O)CC[C@H](NC(=O)CCCCCCCCCCCCCCCCC(=O)O)C(=O)O)C(=O)O)C(=O)N[C@@H](CC(N)=O)C(=O)N[C@@H]([C@@H](C)O)C(=O)N[C@@H](C)C(=O)N[C@@H]([C@@H](C)O)C(=O)N1)[C@@H](C)O)C(=O)N[C@@H](CC(C)C)C(=O)N1CCC[C@H]1C(=O)N1CCC[C@H]1C(=O)N[C@H](C(=O)N[C@@H](CC(N)=O)C(=O)N[C@H](C(=O)NCC(=O)N[C@@H](CO)C(=O)N[C@@H](CC(N)=O)C(=O)N[C@H](C(=O)N[C@@H](Cc1ccc(O)cc1)C(N)=O)[C@@H](C)O)C(C)C)[C@@H](C)O
B2: N-alpha-[(S)-4-Carboxy-4-(19-carboxynonadecanoylamino)butyryl]-[Glu14,Arg17]-pramlintide (peptide)
peptide: {C20 diacid-γGlu}-KCNTATCATQRLAEFLRHSSNNFGPILPPTNVGSNTY-NH2
modifications: disulfide 2-7
SMILES: CC[C@H](C)[C@H](NC(=O)[C@@H]1CCCN1C(=O)CNC(=O)[C@H](Cc1ccccc1)NC(=O)[C@H](CC(N)=O)NC(=O)[C@H](CC(N)=O)NC(=O)[C@H](CO)NC(=O)[C@H](CO)NC(=O)[C@H](Cc1c[nH]cn1)NC(=O)[C@H](CCCNC(=N)N)NC(=O)[C@H](CC(C)C)NC(=O)[C@H](Cc1ccccc1)NC(=O)[C@H](CCC(=O)O)NC(=O)[C@H](C)NC(=O)[C@H](CC(C)C)NC(=O)[C@H](CCCNC(=N)N)NC(=O)[C@H](CCC(N)=O)NC(=O)[C@@H](NC(=O)[C@H](C)NC(=O)[C@@H]1CSSC[C@H](NC(=O)[C@H](CCCCN)NC(=O)CC[C@H](NC(=O)CCCCCCCCCCCCCCCCCCC(=O)O)C(=O)O)C(=O)N[C@@H](CC(N)=O)C(=O)N[C@@H]([C@@H](C)O)C(=O)N[C@@H](C)C(=O)N[C@@H]([C@@H](C)O)C(=O)N1)[C@@H](C)O)C(=O)N[C@@H](CC(C)C)C(=O)N1CCC[C@H]1C(=O)N1CCC[C@H]1C(=O)N[C@H](C(=O)N[C@@H](CC(N)=O)C(=O)N[C@H](C(=O)NCC(=O)N[C@@H](CO)C(=O)N[C@@H](CC(N)=O)C(=O)N[C@H](C(=O)N[C@@H](Cc1ccc(O)cc1)C(N)=O)[C@@H](C)O)C(C)C)[C@@H](C)O

Key:
[1] = target: T1, human amylin 3(a) receptor (human …); assay: cell-based or functional assay
[2] = target: T2, human calcitonin (a) receptor; assay: cell-based or functional assay

Binder	Amylin receptor human EC50 [1] [nM]	CTa receptor human EC50 [2] [nM]
B1	0.151	0.527
B2	0.101	0.459

From patent US20130005646A1 (Novo Nordisk, published 2013)
